Data from patent US20250304643A1 (BAINAN BIOTECH, published 2025).
*1 amine or outer side, *2 acyl side, *3 side chain or, on linkers, in order; H or OH if unused. Where no end group is shown, it is not given here. Side-chain parts run from the residue outwards. [ ]: non-standard residue; d: D form. The star is where a group is joined. C16 diacid = O=C(O)CCCCCCCCCCCCCCC(=O)*; γGlu = O=C(O)[C@H](CCC(=O)[*:2])N[*:1]; Decanoyl = CCCCCCCCCC(=O)*; Aib = CC(C)(N)C(=O)O

T1: human glucose-dependent insulinotropic polypeptide receptor (human, UniProt P48546 22-466)
T1 sequence (looked up): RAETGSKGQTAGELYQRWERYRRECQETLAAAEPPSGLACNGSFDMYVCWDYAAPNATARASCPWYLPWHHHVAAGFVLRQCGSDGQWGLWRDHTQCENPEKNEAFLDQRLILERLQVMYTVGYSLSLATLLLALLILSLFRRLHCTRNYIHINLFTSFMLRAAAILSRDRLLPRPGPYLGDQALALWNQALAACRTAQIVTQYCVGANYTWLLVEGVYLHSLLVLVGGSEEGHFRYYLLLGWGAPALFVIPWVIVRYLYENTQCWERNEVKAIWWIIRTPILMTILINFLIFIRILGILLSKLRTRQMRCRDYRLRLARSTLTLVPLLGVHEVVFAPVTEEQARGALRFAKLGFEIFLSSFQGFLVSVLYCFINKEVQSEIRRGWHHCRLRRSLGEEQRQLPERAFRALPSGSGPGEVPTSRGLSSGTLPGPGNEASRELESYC

T2: human glucagon-like peptide-2 receptor (human, UniProt O95838 1-553)
T2 sequence (looked up): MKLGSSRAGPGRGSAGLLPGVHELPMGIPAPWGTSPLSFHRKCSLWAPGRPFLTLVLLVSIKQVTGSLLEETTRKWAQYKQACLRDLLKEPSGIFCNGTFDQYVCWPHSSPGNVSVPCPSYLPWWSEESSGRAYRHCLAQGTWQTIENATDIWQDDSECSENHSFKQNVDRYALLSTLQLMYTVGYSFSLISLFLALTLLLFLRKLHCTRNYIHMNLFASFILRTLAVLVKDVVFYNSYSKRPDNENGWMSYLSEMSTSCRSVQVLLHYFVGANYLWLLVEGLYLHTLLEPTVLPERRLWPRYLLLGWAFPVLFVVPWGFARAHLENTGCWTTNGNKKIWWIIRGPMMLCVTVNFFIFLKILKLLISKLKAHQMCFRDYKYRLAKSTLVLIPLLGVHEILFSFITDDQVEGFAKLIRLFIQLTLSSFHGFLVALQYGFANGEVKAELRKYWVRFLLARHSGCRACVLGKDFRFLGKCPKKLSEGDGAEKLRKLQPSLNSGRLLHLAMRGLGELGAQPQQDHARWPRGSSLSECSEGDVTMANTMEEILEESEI


Key:
[1] = target: T1, human glucose-dependent insulinotropic …; test: cell-based or functional assay
[2] = target: T2, human glucagon-like peptide-2 receptor; test: cell-based or functional assay

Row | Binder | Efficacy GIPR [1] | Efficacy GLP-2R [2] | logEC50 GLP-2R [2]
1 | {C16 diacid}-H[Aib]DGTFISDYST[Aib]LDALAARDFIEWLIQTKITK-OH (SMILES CC[C@H](C)[C@H](NC(=O)[C@H](Cc1ccccc1)NC(=O)[C@H](CC(=O)O)NC(=O)[C@H](CCCNC(=N)N)NC(=O)[C@H](C)NC(=O)[C@H](C)NC(=O)[C@H](CC(C)C)NC(=O)[C@H](C)NC(=O)[C@H](CC(=O)O)NC(=O)[C@H](CC(C)C)NC(=O)C(C)(C)NC(=O)[C@@H](NC(=O)[C@H](CO)NC(=O)[C@H](Cc1ccc(O)cc1)NC(=O)[C@H](CC(=O)O)NC(=O)[C@H](CO)NC(=O)[C@@H](NC(=O)[C@H](Cc1ccccc1)NC(=O)[C@@H](NC(=O)CNC(=O)[C@H](CC(=O)O)NC(=O)C(C)(C)NC(=O)[C@H](Cc1c[nH]cn1)NC(=O)CCCCCCCCCCCCCCC(=O)O)[C@@H](C)O)[C@@H](C)CC)[C@@H](C)O)C(=O)N[C@@H](CCC(=O)O)C(=O)N[C@@H](Cc1c[nH]c2ccccc12)C(=O)N[C@@H](CC(C)C)C(=O)N[C@H](C(=O)N[C@@H](CCC(N)=O)C(=O)N[C@H](C(=O)N[C@@H](CCCCN)C(=O)N[C@H](C(=O)N[C@H](C(=O)N[C@@H](CCCCN)C(=O)O)[C@@H](C)O)[C@@H](C)CC)[C@@H](C)O)[C@@H](C)CC) [Compound no. 20] | 93% | 88% | –
2 | H[Aib]DGK([γGlu-Decanoyl])FISDYST[Aib]LDNLAARDFINWLIQTKITK-OH (N-terminus assumed; SMILES CCCCCCCCCC(=O)N[C@@H](CCC(=O)NCCCC[C@H](NC(=O)CNC(=O)[C@H](CC(=O)O)NC(=O)C(C)(C)NC(=O)[C@@H](N)Cc1c[nH]cn1)C(=O)N[C@@H](Cc1ccccc1)C(=O)N[C@H](C(=O)N[C@@H](CO)C(=O)N[C@@H](CC(=O)O)C(=O)N[C@@H](Cc1ccc(O)cc1)C(=O)N[C@@H](CO)C(=O)N[C@H](C(=O)NC(C)(C)C(=O)N[C@@H](CC(C)C)C(=O)N[C@@H](CC(=O)O)C(=O)N[C@@H](CC(N)=O)C(=O)N[C@@H](CC(C)C)C(=O)N[C@@H](C)C(=O)N[C@@H](C)C(=O)N[C@@H](CCCNC(=N)N)C(=O)N[C@@H](CC(=O)O)C(=O)N[C@@H](Cc1ccccc1)C(=O)N[C@H](C(=O)N[C@@H](CC(N)=O)C(=O)N[C@@H](Cc1c[nH]c2ccccc12)C(=O)N[C@@H](CC(C)C)C(=O)N[C@H](C(=O)N[C@@H](CCC(N)=O)C(=O)N[C@H](C(=O)N[C@@H](CCCCN)C(=O)N[C@H](C(=O)N[C@H](C(=O)N[C@@H](CCCCN)C(=O)O)[C@@H](C)O)[C@@H](C)CC)[C@@H](C)O)[C@@H](C)CC)[C@@H](C)CC)[C@@H](C)O)[C@@H](C)CC)C(=O)O) [Compound no. 24] | 113% | 90% | –
3 | {C16 diacid}-H[Aib]DGTFISDYST[Aib]LDKLAARDFIEWLIQTKITK-OH (SMILES CC[C@H](C)[C@H](NC(=O)[C@H](Cc1ccccc1)NC(=O)[C@H](CC(=O)O)NC(=O)[C@H](CCCNC(=N)N)NC(=O)[C@H](C)NC(=O)[C@H](C)NC(=O)[C@H](CC(C)C)NC(=O)[C@H](CCCCN)NC(=O)[C@H](CC(=O)O)NC(=O)[C@H](CC(C)C)NC(=O)C(C)(C)NC(=O)[C@@H](NC(=O)[C@H](CO)NC(=O)[C@H](Cc1ccc(O)cc1)NC(=O)[C@H](CC(=O)O)NC(=O)[C@H](CO)NC(=O)[C@@H](NC(=O)[C@H](Cc1ccccc1)NC(=O)[C@@H](NC(=O)CNC(=O)[C@H](CC(=O)O)NC(=O)C(C)(C)NC(=O)[C@H](Cc1c[nH]cn1)NC(=O)CCCCCCCCCCCCCCC(=O)O)[C@@H](C)O)[C@@H](C)CC)[C@@H](C)O)C(=O)N[C@@H](CCC(=O)O)C(=O)N[C@@H](Cc1c[nH]c2ccccc12)C(=O)N[C@@H](CC(C)C)C(=O)N[C@H](C(=O)N[C@@H](CCC(N)=O)C(=O)N[C@H](C(=O)N[C@@H](CCCCN)C(=O)N[C@H](C(=O)N[C@H](C(=O)N[C@@H](CCCCN)C(=O)O)[C@@H](C)O)[C@@H](C)CC)[C@@H](C)O)[C@@H](C)CC) [Compound no. 22] | 91% | 95% | –
4 | {C16 diacid}-H[Aib]EGTFISDYST[Aib]LDKLAARDFINWLIQTKITK-OH (SMILES CC[C@H](C)[C@H](NC(=O)[C@H](Cc1ccccc1)NC(=O)[C@H](CC(=O)O)NC(=O)[C@H](CCCNC(=N)N)NC(=O)[C@H](C)NC(=O)[C@H](C)NC(=O)[C@H](CC(C)C)NC(=O)[C@H](CCCCN)NC(=O)[C@H](CC(=O)O)NC(=O)[C@H](CC(C)C)NC(=O)C(C)(C)NC(=O)[C@@H](NC(=O)[C@H](CO)NC(=O)[C@H](Cc1ccc(O)cc1)NC(=O)[C@H](CC(=O)O)NC(=O)[C@H](CO)NC(=O)[C@@H](NC(=O)[C@H](Cc1ccccc1)NC(=O)[C@@H](NC(=O)CNC(=O)[C@H](CCC(=O)O)NC(=O)C(C)(C)NC(=O)[C@H](Cc1c[nH]cn1)NC(=O)CCCCCCCCCCCCCCC(=O)O)[C@@H](C)O)[C@@H](C)CC)[C@@H](C)O)C(=O)N[C@@H](CC(N)=O)C(=O)N[C@@H](Cc1c[nH]c2ccccc12)C(=O)N[C@@H](CC(C)C)C(=O)N[C@H](C(=O)N[C@@H](CCC(N)=O)C(=O)N[C@H](C(=O)N[C@@H](CCCCN)C(=O)N[C@H](C(=O)N[C@H](C(=O)N[C@@H](CCCCN)C(=O)O)[C@@H](C)O)[C@@H](C)CC)[C@@H](C)O)[C@@H](C)CC) [Compound no. 21] | 86% | 58% | –

Other lines, results leading:

Row | Efficacy GIPR [1] | Efficacy GLP-2R [2] | logEC50 GLP-2R [2] | Binder
5 | 93% | 88% | 9 | H[Aib]DGK([γGlu-C16 diacid])FISDYST[Aib]LDNLAARDFINWLIQTKITK-OH (N-terminus assumed; SMILES CC[C@H](C)[C@H](NC(=O)[C@H](Cc1ccccc1)NC(=O)[C@H](CCCCNC(=O)CC[C@H](NC(=O)CCCCCCCCCCCCCCC(=O)O)C(=O)O)NC(=O)CNC(=O)[C@H](CC(=O)O)NC(=O)C(C)(C)NC(=O)[C@@H](N)Cc1c[nH]cn1)C(=O)N[C@@H](CO)C(=O)N[C@@H](CC(=O)O)C(=O)N[C@@H](Cc1ccc(O)cc1)C(=O)N[C@@H](CO)C(=O)N[C@H](C(=O)NC(C)(C)C(=O)N[C@@H](CC(C)C)C(=O)N[C@@H](CC(=O)O)C(=O)N[C@@H](CC(N)=O)C(=O)N[C@@H](CC(C)C)C(=O)N[C@@H](C)C(=O)N[C@@H](C)C(=O)N[C@@H](CCCNC(=N)N)C(=O)N[C@@H](CC(=O)O)C(=O)N[C@@H](Cc1ccccc1)C(=O)N[C@H](C(=O)N[C@@H](CC(N)=O)C(=O)N[C@@H](Cc1c[nH]c2ccccc12)C(=O)N[C@@H](CC(C)C)C(=O)N[C@H](C(=O)N[C@@H](CCC(N)=O)C(=O)N[C@H](C(=O)N[C@@H](CCCCN)C(=O)N[C@H](C(=O)N[C@H](C(=O)N[C@@H](CCCCN)C(=O)O)[C@@H](C)O)[C@@H](C)CC)[C@@H](C)O)[C@@H](C)CC)[C@@H](C)CC)[C@@H](C)O) [Compound no. 25]
6 | 107% | 86% | 8.8 | {C16 diacid}-H[Aib]DGTFISDYST[Aib]LDKLAARDFINWLIETKITK-OH (SMILES CC[C@H](C)[C@H](NC(=O)[C@H](Cc1ccccc1)NC(=O)[C@H](CC(=O)O)NC(=O)[C@H](CCCNC(=N)N)NC(=O)[C@H](C)NC(=O)[C@H](C)NC(=O)[C@H](CC(C)C)NC(=O)[C@H](CCCCN)NC(=O)[C@H](CC(=O)O)NC(=O)[C@H](CC(C)C)NC(=O)C(C)(C)NC(=O)[C@@H](NC(=O)[C@H](CO)NC(=O)[C@H](Cc1ccc(O)cc1)NC(=O)[C@H](CC(=O)O)NC(=O)[C@H](CO)NC(=O)[C@@H](NC(=O)[C@H](Cc1ccccc1)NC(=O)[C@@H](NC(=O)CNC(=O)[C@H](CC(=O)O)NC(=O)C(C)(C)NC(=O)[C@H](Cc1c[nH]cn1)NC(=O)CCCCCCCCCCCCCCC(=O)O)[C@@H](C)O)[C@@H](C)CC)[C@@H](C)O)C(=O)N[C@@H](CC(N)=O)C(=O)N[C@@H](Cc1c[nH]c2ccccc12)C(=O)N[C@@H](CC(C)C)C(=O)N[C@H](C(=O)N[C@@H](CCC(=O)O)C(=O)N[C@H](C(=O)N[C@@H](CCCCN)C(=O)N[C@H](C(=O)N[C@H](C(=O)N[C@@H](CCCCN)C(=O)O)[C@@H](C)O)[C@@H](C)CC)[C@@H](C)O)[C@@H](C)CC) [Compound no. 23]
